# From the supplement of paper PMC6755084
# System: F1*sub RNA substrate (template-directed ligation)
# Test: fraction ligated after 30 min (ligated reads / total reads); higher = more ligase activity; sequences stand for … in GAGACCGCAACTGAAAAGTTGT…AGTTCTGCACGTAGAAGCAAAAGGC
# Details: 42 °C
# In short: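 The ligase ribozyme variants were produced by PCR amplification of oligo-pool templates, T7 transcription and purification on gel. Their ligated and unligated forms were gel-separated, then reverse transcribed with barcoded primers before MiSeq sequencing. Core bases were filtered at a quality of ≥20, and fraction ligated per variant was ligated reads over total reads.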
row,Sequence,fraction ligated
1,TTCACTTGTCGTAAGCACTTTGGAGGGTTGA [3d458],0.051
2,TTCACTTGTCGTAAGCACTTTGGATGGGTTA [3d460],0.0582
3,TTCACTTGTCGTAAGCACTTTGGATGGGTTG [3d461],0.601
4,TTCACTTGTCGTAAGCACTTTGGATGGGTTGA [2d36],0.771
5,TTCACTTGTCGTAAGCACTTTGGATGGTTGA [3d459],0.164
6,TTCACTTGTCGTAAGCACTTTGGTGGGTTGA [3d457],0.0197
7,TTCACTTGTCGTAAGCATTTGGATGGGTTGA [3d454],0.769
8,TTCACTTGTCGTAAGCCTTTGGATGGGTTGA [3d453],0.525
9,TTCACTTGTCGTAGAACTTTGGATGGGTTGA [3d432],0.761
10,TTCACTTGTCGTAGACACTTGGATGGGTTGA [3d435],0.489
11,TTCACTTGTCGTAGACACTTTGATGGGTTGA [3d436],0.258
12,TTCACTTGTCGTAGACACTTTGGAGGGTTGA [3d438],0.149
13,TTCACTTGTCGTAGACACTTTGGATGGGTTA [3d440],0.341
14,TTCACTTGTCGTAGACACTTTGGATGGGTTG [3d441],0.801
15,TTCACTTGTCGTAGACACTTTGGATGGGTTGA [2d34],0.798
16,TTCACTTGTCGTAGACACTTTGGATGGTTGA [3d439],0.57
17,TTCACTTGTCGTAGACACTTTGGTGGGTTGA [3d437],0.0435
18,TTCACTTGTCGTAGACATTTGGATGGGTTGA [3d434],0.742
19,TTCACTTGTCGTAGACCTTTGGATGGGTTGA [3d433],0.751
20,TTCACTTGTCGTAGCACTTTGGATGGGTTGA [3d431],0.735
21,TTCACTTGTCGTGACACTTTGGATGGGTTGA [3d429],0.255
22,TTCACTTGTCTAAACACTTTGGATGGGTTGA [3d404],0.719
23,TTCACTTGTCTAAGAACTTTGGATGGGTTGA [3d406],0.349

row,Sequence,fraction ligated
1,TTCACTTGTCTAAGACACTTGGATGGGTTGA [3d409],0.435
2,TTCACTTGTCTAAGACACTTTGATGGGTTGA [3d410],0.312
3,TTCACTTGTCTAAGACACTTTGGAGGGTTGA [3d412],0.154
4,TTCACTTGTCTAAGACACTTTGGATGGGTTA [3d414],0.344
5,TTCACTTGTCTAAGACACTTTGGATGGGTTG [3d415],0.752
6,TTCACTTGTCTAAGACACTTTGGATGGGTTGA [2d32],0.768
7,TTCACTTGTCTAAGACACTTTGGATGGTTGA [3d413],0.661
8,TTCACTTGTCTAAGACACTTTGGTGGGTTGA [3d411],0.035
9,TTCACTTGTCTAAGACATTTGGATGGGTTGA [3d408],0.753
10,TTCACTTGTCTAAGACCTTTGGATGGGTTGA [3d407],0.578
11,TTCACTTGTCTAAGCACTTTGGATGGGTTGA [3d405],0.67
12,TTCACTTGTCTAGACACTTTGGATGGGTTGA [3d403],0.703
13,TTCACTTGTGAAGACACTTTGGATGGGTTGA [3d388],0.767
14,TTCACTTGTGTAAACACTTTGGATGGGTTGA [3d390],0.793
15,TTCACTTGTGTAAGAACTTTGGATGGGTTGA [3d392],0.694
16,TTCACTTGTGTAAGACACTTGGATGGGTTGA [3d395],0.161
17,TTCACTTGTGTAAGACACTTTGATGGGTTGA [3d396],0.122
18,TTCACTTGTGTAAGACACTTTGGAGGGTTGA [3d398],0.105
19,TTCACTTGTGTAAGACACTTTGGATGGGTTA [3d400],0.132
20,TTCACTTGTGTAAGACACTTTGGATGGGTTG [3d401],0.726
21,TTCACTTGTGTAAGACACTTTGGATGGGTTGA [2d31],0.781
22,TTCACTTGTGTAAGACACTTTGGATGGTTGA [3d399],0.284
23,TTCACTTGTGTAAGACACTTTGGTGGGTTGA [3d397],0.00981
